# Assay results taken from patent US20230348564A1, “ANTI-CANCER PROTEINS” (UNICHEM LABORATORIES LTD, priority 2020, published 2023).
# B1: SEQ ID NO. 2: recombinant lectin; variant of the S. rolfsii lectin amino acid sequence (reported as Rec-2 in WO 2010/095143) (protein)
# chain: TYKITVRVYQTNPDAFFHPVEKTVWKYANGGTWTITDDQHVLTMGGSGTSGTLRFHADNGESFTATFGVHNYKRWCDIVTNLAADETGMVINQQYYSQKNREEARERQLSNYQVKNAKGRNFQIVYTEAEGNDLHANLIIG
# modifications: In vitro synthesis
# How the values were obtained:
# [1] = tested on: KB; assay: cell based in vitro cytotoxicity/anti-proliferation assay (summary); parameters: species or system Human; conditions: Cervical
# Procedure: (§1) The percentage cytotoxicity was calculated using the statistical tool.
# [2] = tested on: PBMC (Peripheral blood mononuclear cells); assay: as above; conditions: normal cells
# Procedure: as §1
# [3] = tested on: MCF-7 (Breast cancer); assay: Xenograft study; assay type: in vivo, mice; conditions: MCF-7 xenograft, IP
# Text: (§2) The Xenograft models used were HT-29, KB, PA-1, MCF-7, PANC-1, T24 and MDA-MB-231. The basic study design for the Xenograft study was as follows: • 1. Cell maintenance and cell suspension preparation • 2. Aseptic injection of tumor cell suspension in the donor animal • 3. Randomization of animals in respective groups • 4. IP dosing of test items in predetermined doses • 5. IP administration of standard • 6. After completion of dosing period. • 7. The Tumor volume recording weekly twice while body weight and clinical signs daily.
# [4] = tested on: PA-1 (Ovary teratocarcinoma); assay: Xenograft study; assay type: in vivo, mice; conditions: PA-1 xenograft, IP
# Text: as §2
# [5] = tested on: PANC-1 (Pancreas/duct epithelioid carcinoma); assay: Xenograft study; assay type: in vivo, mice; conditions: PANC-1 xenograft, IP
# Text: as §2
# [6] = tested on: T24 (Urinary bladder/transitional cell carcinoma); assay: Xenograft study; assay type: in vivo, mice; conditions: IP
# Text: as §2
# [7] = tested on: KB (Cervical cancer); assay: Xenograft study; assay type: in vivo, mice; conditions: IP
# Text: as §2
# [8] = tested on: MDA-MB-231 (Mammary gland/breast adenocarcinoma); assay: Xenograft study; assay type: in vivo, mice; conditions: MDA-MB-231 xenograft, IP
# Text: as §2
# [9] = tested on: HT-29 (Colorectal cancer); assay: Xenograft study; assay type: in vivo, mice
# Text: as §2
# [10] = tested on: EA.hy926 (Human endothelial cells); assay: endothelial cell proliferation by MTT assay; assay type: cell-based; conditions: for % inhibition of FBS stimulated cell growth / Mean (MTT absorbance): 72 h
# Procedure: The cell line used for the study was EA.hy926 (Human endothelial cells) which was procured from National Centre for Cell Science, Pune (India). The cell line was maintained in DMEM+10% FBS (heat inactivated) at 37° C. with 5% CO2, and 95% humidity. […] Untreated cells with complete medium (10% FBS) served as complete medium control, cells with sera free medium served as SFM control and the cells treated with Paclitaxel served as positive control.
# The percentage cytotoxicity corresponding to each treatment was calculated.
# [11] = tested on: MIAPaCa-2
molecule,measurement,setting,value
B1,% Cytotoxicity,[1],64.0%
same,% Cytotoxicity,[2]; listed as SEQ ID NO 2,Nil
same,% Cytotoxicity,[2]; listed as SEQ ID No 2,did not show cytotoxic effect
same,Maximum Tumor Growth Inhibition (%),[3],69.04%
same,Tumor Volume (mm^3) (Mean ± SEM),[3],1256 ± 132 mm^3
same,Maximum Tumor Growth Inhibition (%),[4],62.15%
same,Tumor Volume (mm^3) (Mean ± SEM),[4],1050 ± 132 mm^3
same,Maximum Tumor Growth Inhibition (%),[5],39.15%
same,Tumor Volume (mm^3) (Mean ± SEM),[5],721.17 ± 194.63 mm^3
same,Maximum Tumor Growth Inhibition (%),[6],36.52%
same,Tumor Volume (mm^3) (Mean ± SEM),[6],551.06 ± 10.02 mm^3
same,Maximum Tumor Growth Inhibition (%),[7],60.49%
same,Tumor Volume (mm^3) (Mean ± SEM),[7],782 ± 92 mm^3
same,Maximum Tumor Growth Inhibition (%),[8],35.21%
same,Tumor Volume (mm^3) (Mean ± SEM),[8],834.80 ± 126.95 mm^3
same,"tumor volume in comparison with the vehicle control group, in words",[9]; 20 mg/Kg and 30 mg/Kg body weight (daily),significant decrease in tumor volume
same,Maximum Tumor Growth Inhibition (%),"[9]; HT-29 xenograft, IP",56.62%
same,Tumor Volume (mm^3) (Mean ± SEM),"[9]; HT-29 xenograft, IP",1702 ± 274 mm^3
same,% inhibition of FBS stimulated cell growth,[10]; 2.5 μg/mL,−9.83%
same,Mean (MTT absorbance),[10]; 2.5 μg/mL,1.761
same,% inhibition of FBS stimulated cell growth,[10]; 5 μg/mL,−12.16%
same,Mean (MTT absorbance),[10]; 5 μg/mL,1.799
same,% inhibition of FBS stimulated cell growth,[10]; 10 μg/mL,−16.59%
same,Mean (MTT absorbance),[10]; 10 μg/mL,1.870
same,inhibition of endothelial cell proliferation as compared to control,[10]; 20 μg/mL to 100 μg/mL,15.51% to 58.53%
same,% inhibition of FBS stimulated cell growth,[10]; 20 μg/mL,15.51%
same,Mean (MTT absorbance),[10]; 20 μg/mL,1.355
same,% inhibition of FBS stimulated cell growth,[10]; 40 μg/mL,29.22%
same,Mean (MTT absorbance),[10]; 40 μg/mL,1.135
same,% inhibition of FBS stimulated cell growth,[10]; 80 μg/mL,56.50%
same,Mean (MTT absorbance),[10]; 80 μg/mL,0.698
same,% inhibition of FBS stimulated cell growth,[10]; 100 μg/mL,58.53%
same,Mean (MTT absorbance),[10]; 100 μg/mL,0.665
same,% Cytotoxicity,[11],47.5%
